Target: T1, Mineralocorticoid receptor (MCR) amino acids 603-985, Gal4 DNA-binding-domain bait fusion (Saccharomyces cerevisiae, UniProt P04386 1-147; P08235 603-984)
T1 construct: range 1-147;range 603-985; Bait made as a C-terminal fusion to Gal4 DBD in vector pGBTQ; also called MCR AA 603-985
Test: yeast two-hybrid (Gal4, beta-galactosidase read-out) with 4 uM aldosterone; bait MCR AA 603-985
Description: DNA was prepared from each clone, transformed by electroporation into E. coli strain KC8 (Clontech KC8 electrocompetent cells, cat. # C2023-1), and the cells were selected on ampicillin-containing plates in the absence of either tryptophane (selection for the bait plasmid) or leucine (selection for the brain library plasmid). DNA for both plasmids was prepared and sequenced by di-deoxynucleotide chain termination method. The identity of the bait cDNA insert was confirmed and the cDNA insert from the brain library plasmid was identified using BLAST program against public nucleotides and protein databases. Plasmids from the brain library (preys) were then individually transformed into yeast cells together with a plasmid driving the synthesis of lamin fused to the Gal4 DNA binding domain. Clones that gave a positive signal after β-galactosidase assay were considered false-positives and discarded. Plasmids for the remaining clones were transformed into yeast cells together with plasmid for the original bait. Clones that gave a positive signal after ,galactosidase assay were considered true positives.
A yeast two-hybrid system as described in Example 1 was performed in the presence of aldosterone. […]

B1: PN19395 amino acids 120-397, Gal4 activation-domain prey fusion (other, Saccharomyces cerevisiae, not shown: small tags and cut ends)
chain: ANFNQSGNIADSSLSFTFTNSSNGPNLITTQTNSQALSQPIASSNVHDNFMNNEITASKIDDGNNSKPLSPGWTDQTAYNAFGITTGMFNTTTMDDVYNYLFDDEDTPPNPKKELMPGAGLLPIPTPNPLTTLGVSLSSLGAIPAAALDPNIATLGEIPQPPLMGNVDPSKIDEIRRTVYVGNLNSQTTTADQLLEFFKQVGEVKFVRMAGDETQPTRFAFVEFADQNSVPRALAFNGVMFGDRPLKINHSNNAIVKPPEMTPQAAAKELEEVMKRVREAQSFISAAIEPESGKSNERKGGRSRSHTRSKSRSSSKSHSRRKRSQSKHRSRSHNRSRSRQKDRRRSKSPHKKRSKSRERRKSRSRSHSRDKRKDTREKIKEKERVKEKDREK
notes: range 768-881; Novel 624 amino acid protein; Clone from a human brain cDNA library in pACT2
B1: binds.

From patent US20030068630A1 (MYRIAD GENETICS, published 2003)
